Target: T1, SifA (1–330), as in the calorimetry and the crystal (S. typhimurium, UniProt Q56061 1-330)
T1 sequence: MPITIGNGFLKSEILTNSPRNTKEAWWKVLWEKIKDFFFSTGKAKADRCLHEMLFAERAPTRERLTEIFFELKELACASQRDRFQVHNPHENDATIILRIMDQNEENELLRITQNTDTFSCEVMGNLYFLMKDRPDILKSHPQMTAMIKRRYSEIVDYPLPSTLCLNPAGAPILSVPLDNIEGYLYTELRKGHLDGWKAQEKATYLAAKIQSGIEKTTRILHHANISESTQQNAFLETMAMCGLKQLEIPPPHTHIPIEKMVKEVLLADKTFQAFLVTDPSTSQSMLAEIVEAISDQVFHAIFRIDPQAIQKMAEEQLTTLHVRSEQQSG
Assay: ITC

B1: PH domain (PHD) of SKIP (774–883), as in the calorimetry and the crystal (domain or fragment, UniProt Q8IWE5 774-883, looked up)
chain: KEGMLHYKAGTSYLGKEHWKTCFVVLSNGILYQYPDRTDVIPLLSVNMGGEQCGGCRRANTTDRPHAFQVILSDRPCLELSAESEAEMAEWMQHLCQAVSKGVIPQGVAP
**Q.** For B1, which Kd is on record?
**A.** The Kd was 2580 nM.

From publication PMC2658612 (Cell host & microbe, 2008)
